# Data published in patent EP4361176A1 (CHUGAI SEIYAKU KABUSHIKI KAISHA, dated 2024).
# Positions count from the first letter of the chain named.
# T1: human CTLA4 (soluble analyte of the Biacore assays of Reference Example 3-3) (human, UniProt P16410 36-161)
# T1 construct: also called hCTLA4
# T1 sequence: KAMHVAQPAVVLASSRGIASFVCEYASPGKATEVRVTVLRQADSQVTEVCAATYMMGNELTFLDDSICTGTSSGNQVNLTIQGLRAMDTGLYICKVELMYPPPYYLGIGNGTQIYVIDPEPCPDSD
# T2: hFcyRIIaH on hFcyRIIaH-expressing Jurkat cells (human, UniProt P12318 34-317)
# T2 sequence (looked up): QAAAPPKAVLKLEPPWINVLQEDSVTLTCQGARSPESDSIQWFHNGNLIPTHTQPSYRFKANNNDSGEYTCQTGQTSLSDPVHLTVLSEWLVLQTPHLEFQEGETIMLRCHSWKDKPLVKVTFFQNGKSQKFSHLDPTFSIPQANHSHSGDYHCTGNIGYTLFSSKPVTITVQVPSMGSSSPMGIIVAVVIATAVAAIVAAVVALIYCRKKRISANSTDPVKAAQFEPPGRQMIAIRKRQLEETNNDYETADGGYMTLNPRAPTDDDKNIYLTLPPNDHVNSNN
# T3: human FcγRIIa H extracellular domain (human, UniProt P12318 34-217)
# T3 construct: extracellular domain; Made by the method of WO2014104165; also called hFcγR IIa H; FcyRIIaH
# T3 sequence (looked up): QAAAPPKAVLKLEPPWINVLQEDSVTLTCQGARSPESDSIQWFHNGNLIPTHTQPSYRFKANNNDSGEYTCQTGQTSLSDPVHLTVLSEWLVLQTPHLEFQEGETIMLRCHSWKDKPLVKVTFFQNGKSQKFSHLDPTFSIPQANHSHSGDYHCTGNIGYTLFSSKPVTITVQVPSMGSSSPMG
# B1: 04H1207-G1m/04L1086-lam1 (antibody, human IgG1, lambda, V domains shown)
# VH: EVQLVESGGGLVKPGGSLRLSCAASGFTFSSKTMNWVRQAPGKGLEWVSSISTRSGYIYYAESVKGRFTISRDNAKNSLYLQMNSLRAEDTAVYYCARYGKREDMLWVFDYWGQGTLVTVSS
# VL: QSALTQPPSASGSPGQTVTISCDGPSTGVGDYNYVHWYQQHPGKAPKLMIYFTSKKPSGVPDRFSGSKSGNTASLTVSGLQAEDEADYFCQTYAAPLGPMFGGGTKLTVLG
# B2: 04H1077-G1m/04L1086-lam1 (antibody, human IgG1, lambda, V domains shown)
# VH: B1 VH with G10D, S17G, K32R
# VL: B1 VL
# B3: 04H1077-G1m/04L1305-k0MT (antibody, human IgG1, kappa, V domains shown)
# VH: B1 VH with G10D, S17G, K32R
# VL: DIVMTQSPLSLPVTPGEPASISCDGPSTGVGDYNYVHWYQQKPGQAPRLLIYFTSKKPSGVPDRFSGSGSGTDFTLKISRVEAEDVGVYYCQTYAAPLGPMFGQGTKLEIKR
# B4: 04H1208-G1m/04L1086-lam1 (antibody, human IgG1, lambda, V domains shown)
# VH: B1 VH with E62R
# VL: B1 VL
# B5: 04H1077-G1m/04L1067-lam1 (antibody, human IgG1, lambda, V domains shown)
# VH: B1 VH with G10D, S17G, K32R
# VL: B1 VL with Q91S
# B6: 04H1077-G1m/04L1034-lam1 (antibody, human IgG1, lambda, V domains shown)
# VH: B1 VH with G10D, S17G, K32R
# VL: B1 VL with G28D, Y34W, H36S, Q91S
# B7: 04H1077-G1m/04L1041-lam1 (antibody, human IgG1, lambda, V domains shown)
# VH: B1 VH with G10D, S17G, K32R
# VL: B1 VL with G28D, Q91S
# B8: 04H1077-G1m/04L1066-lam1 (antibody, human IgG1, lambda, V domains shown)
# VH: B1 VH with G10D, S17G, K32R
# VL: B1 VL with G28D, Y34W, Q91S
# B9: 04H1389-G1m/04L1086-lam1 (antibody, human IgG1, lambda, V domains shown)
# VH: B1 VH with R54Q, G56H
# VL: B1 VL
# notes: Human IgG1 (G1m), human lambda
# B10: 04H1637-G1m/04L1086-lam1 (antibody, human IgG1, lambda)
# heavy: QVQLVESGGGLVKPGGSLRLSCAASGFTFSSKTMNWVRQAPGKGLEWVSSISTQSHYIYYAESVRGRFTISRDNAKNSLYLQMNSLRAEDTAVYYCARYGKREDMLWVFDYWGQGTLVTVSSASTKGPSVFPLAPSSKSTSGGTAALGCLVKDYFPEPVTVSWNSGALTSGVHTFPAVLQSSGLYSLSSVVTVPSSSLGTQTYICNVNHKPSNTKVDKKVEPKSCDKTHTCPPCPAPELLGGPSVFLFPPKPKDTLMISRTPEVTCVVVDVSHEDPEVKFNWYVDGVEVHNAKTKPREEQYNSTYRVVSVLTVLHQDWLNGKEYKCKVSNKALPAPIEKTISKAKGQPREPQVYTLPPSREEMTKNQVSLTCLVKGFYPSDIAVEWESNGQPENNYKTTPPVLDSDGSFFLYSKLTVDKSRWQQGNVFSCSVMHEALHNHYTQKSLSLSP
# light: QSALTQPPSASGSPGQTVTISCDGPSTGVGDYNYVHWYQQHPGKAPKLMIYFTSKKPSGVPDRFSGSKSGNTASLTVSGLQAEDEADYFCQTYAAPLGPMFGGGTKLTVLGQPKAAPSVTLFPPSSEELQANKATLVCLISDFYPGAVTVAWKADSSPVKAGVETTTPSKQSNNKYAASSYLSLTPEQWKSHRSYSCQVTHEGSTVEKTVAPTECS
# B11: 04H1389v373-G1m/04L1086-lam1 (antibody, human IgG1, lambda)
# heavy: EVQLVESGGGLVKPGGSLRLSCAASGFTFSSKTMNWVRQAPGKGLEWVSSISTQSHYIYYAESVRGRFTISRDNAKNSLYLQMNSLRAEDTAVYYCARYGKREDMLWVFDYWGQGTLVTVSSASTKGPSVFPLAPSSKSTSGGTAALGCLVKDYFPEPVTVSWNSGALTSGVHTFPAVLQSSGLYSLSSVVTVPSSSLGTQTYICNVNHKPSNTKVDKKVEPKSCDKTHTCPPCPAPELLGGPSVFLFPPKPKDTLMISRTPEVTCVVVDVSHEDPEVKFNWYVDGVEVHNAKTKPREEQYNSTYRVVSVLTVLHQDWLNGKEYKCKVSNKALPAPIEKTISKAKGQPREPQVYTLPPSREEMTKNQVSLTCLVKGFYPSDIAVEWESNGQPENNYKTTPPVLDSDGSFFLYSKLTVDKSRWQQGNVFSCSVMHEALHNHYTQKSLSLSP
# light: B10 light
# B12: H240-Kn037/L73-k0//H240-Hl036/L73-k0 (antibody, human IgG1, kappa)
# heavy 1: QDQLVQSGAEVKKPGASVKVSCKASGFNIKDTYIQWVRQAPGQGLEWMGRIDPLRKQTKYREKFEGRVTITADTSTNTAYMELSSLRSEDTAVYYCVRSGREFDYWGQGTLVTVSSASTKGPSVFPLAPSSKSTSGGTAALGCLVKDYFPEPVTVSWNSGALTSGVHTFPAVLQSSGLYSLSSVVTVPSSSLGTQTYICNVNHKPSNTKVDKKVEPKSCDKTHTCPPCPAPELLAGPDVFLFPPKPKDTLMISRTPEVTCVVVDVSHEDPEVKFNWYVDGVEVHNAKTKPREEQYNSTYRVVSVLTVLHQDWLNGKEYKCKVSNKALPAPEEKTISKAKGQPREPQVCTLPPSRDELTKNQVSLWCLVKGFYPSDIAVEWESNGQPENNYKTTPPVLDSDGSFFLYSKLTVDKSRWQQGNVFSCSVMHEALHNHYTQKSLSLSP
# heavy 2: B12 heavy 1 with C348Y, D355C, W365S, L367A, Y406V
# light: DIQMTQSPSSLSASVGDRVTITCRASQDIHKYIAWYQQKPGQAPRLLIQYTSTLQPGVPSRFSGSGSGTDYTFTISSLQPEDIATYYCLQYEQLRTFGGGTKVEIKRTVAAPSVFIFPPSDEQLKSGTASVVCLLNNFYPREAKVQWKVDNALQSGNSQESVTEQDSKDSTYSLSSTLTLSKADYEKHKVYACEVTHQGLSSPVTKSFNRGEC
# notes: also called EGL-GASDIE; GASDIE
# Molecular target: T1, human CTLA4 (soluble analyte of the …)
# Test: SPR, 1000 nM CTLA4, per unit antibody, no ATP
row,Binder,Binding to Human CTLA4
1,B1,0.013
2,B2,0.01
3,B3,0.018
4,B4,0.005
5,B5,0.012
6,B6,0.004
7,B7,0.006
8,B8,0.02

# Molecular target: T4, human CTLA4 (hCTLA4-His-BAP: human CTLA4 extracellular region with C-terminal His-tag and BAP-tag) (human)
# T4 construct: This tie is an inference
# Test: SPR (Biacore T200, 37C), antibody captured, human CTLA4 at 1000 nM, ATP 10 uM
row,Binder,Binding to Human CTLA4 (binding amount per unit amount of antibody)
1,B9,0.189

# Molecular target: T1, human CTLA4 (soluble analyte of the …)
# Test: SPR Biacore T200
row,Binder,binding result
1,B10,binds
2,B11,binds

# Molecular target: T4, human CTLA4 (hCTLA4-His-BAP: human …)
# Test: SPR (Biacore T200, 37C), antibody captured, human CTLA4 at 1000 nM, ATP 100 uM
row,Binder,Binding to Human CTLA4 (binding amount per unit amount of antibody)
1,B9,0.193

# Molecular target: T4, human CTLA4 (hCTLA4-His-BAP: human …)
# Test: SPR (Biacore T200, 37C), antibody captured, human CTLA4 at 1000 nM, no ATP
row,Binder,Binding to Human CTLA4 (binding amount per unit amount of antibody)
1,B9,0.022

# Molecular target: T2, hFcyRIIaH on hFcyRIIaH-expressing …
# Test: cell-based or functional assay
row,Binder,"EC50 value (µg/mL), ADCP reporter bioassay (fold induction of luminescence), Hepa1-6/hEREG target cells"
1,B12,0.0149 µg/mL

# Molecular target: T1, human CTLA4 (soluble analyte of the …)
# Test: SPR, 1000 nM CTLA4, per unit antibody, ATP 10 uM
row,Binder,Binding to Human CTLA4
1,B1,0.137
2,B2,0.106
3,B3,0.128
4,B4,0.108
5,B5,0.131
6,B6,0.041
7,B7,0.094
8,B8,0.142

# Molecular target: T1, human CTLA4 (soluble analyte of the …)
# Test: SPR, 1000 nM CTLA4, per unit antibody, ATP 1 uM
row,Binder,Binding to Human CTLA4
1,B1,0.047
2,B2,0.031
3,B3,0.046
4,B4,0.03
5,B5,0.041
6,B6,0.007
7,B7,0.023
8,B8,0.057

# Molecular target: hFcyRIIIaV on hFcyRIIIaV-expressing Jurkat cells (human, UniProt P08637 17-254)
# Test: cell-based or functional assay
# Chain of hFcyRIIIaV on hFcyRIIIaV-expressing Jurkat cells (P08637 17-254): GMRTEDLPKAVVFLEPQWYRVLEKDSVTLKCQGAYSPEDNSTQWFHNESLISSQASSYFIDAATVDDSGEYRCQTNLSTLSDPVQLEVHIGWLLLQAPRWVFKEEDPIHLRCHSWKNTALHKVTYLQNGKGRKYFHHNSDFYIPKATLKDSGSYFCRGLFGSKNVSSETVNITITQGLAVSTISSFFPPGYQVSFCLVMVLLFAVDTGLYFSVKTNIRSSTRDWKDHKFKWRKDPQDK
row,Binder,"EC50 value (µg/mL), ADCC reporter bioassay (fold induction of luminescence), Hepa1-6/hEREG target cells"
1,B12,0.0037 µg/mL

# Molecular target: T3, human FcγRIIa H extracellular domain
# Test: SPR; KD for FcγRIIb divided by KD for this FcγR
row,Binder,A/I ratio (KD for FcγRIIb divided by KD for each FcyR)
1,B12,18.2

# Molecular target: T5, human FcγRIIIa F extracellular domain (human, UniProt P08637 17-208)
# T5 construct: extracellular domain; Made by the method of WO2014104165; also called hFcγR IIIa F; FcyRIIIaF
# Test: SPR; KD for FcγRIIb divided by KD for this FcγR
# T5 sequence (P08637 17-208): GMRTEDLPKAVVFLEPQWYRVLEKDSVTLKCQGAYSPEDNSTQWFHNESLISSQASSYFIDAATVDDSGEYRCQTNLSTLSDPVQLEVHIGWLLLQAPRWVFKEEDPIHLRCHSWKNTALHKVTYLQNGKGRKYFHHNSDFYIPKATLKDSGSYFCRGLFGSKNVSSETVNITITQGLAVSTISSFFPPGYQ
row,Binder,A/I ratio (KD for FcγRIIb divided by KD for each FcyR)
1,B12,18.9

# Molecular target: T4, human CTLA4 (hCTLA4-His-BAP: human …)
# Test: SPR (Biacore T200, 37C), antibody captured, human CTLA4 at 1000 nM, ATP 1 uM
row,Binder,Binding to Human CTLA4 (binding amount per unit amount of antibody)
1,B9,0.138

# Molecular target: T1, human CTLA4 (soluble analyte of the …)
# Test: SPR, 1000 nM CTLA4, per unit antibody, ATP 100 uM
row,Binder,Binding to Human CTLA4
1,B1,0.196
2,B2,0.181
3,B3,0.185
4,B4,0.17
5,B5,0.192
6,B6,0.114
7,B7,0.172
8,B8,0.185
